Entries after “also recorded” stand apart in the source; their conditions may differ.
Legend:
[1] = Hemorrhage after brain injection in healthy, tumor-free rats; assay type: in vivo; details: no difference to PBS-injected brains
From the text: (§1) All previous work was done with CN, the precursor of VCN. Applicants previously determined whether CN induces hemorrhage in healthy, tumor-free rats.

[2] = Immune response after intracranial injection; assay type: in vivo, rodents
From the text: as §1

[3] = tested on: C6 rat GBM cells; assay: Gamma camera biodistribution after intracranial injection, C6 rat GBM; assay type: in vivo, rats; details: given intracranially as ^131I-CN
Protocol: A Gamma camera was used to determine biodistribution of ^131I-CN in rats after intracranial injection of C6 rat GBM cells, and tumors allowed to grow for 7 days. Two tumor-free rats were also administered ^131I-CN intracranially. Whole-body distribution of radioactivity was imaged at 0 and 24 hours after injection of ^131I-CN.
CN is localized to the brain in all animals at 0 hours. […] This retention was attributable to CN's specific binding to integrin αvβ3, which has been shown previously by us and others to be overexpressed in glioma cells, but not in normal brain tissue. Thus, CN delivered intratumorally binds to the expected integrins in GBM in vivo and accumulates specifically at the site of the tumor. Based on structural and functional similarities between VCN and CN, we anticipate identical findings with VCN for GBM localization.

[4] = tested on: GBM; assay: Survival study, intratumoral delivery via Alzet pump in GBM-bearing animals; assay type: in vivo
[5] = target: α5β1 (Homo sapiens, UniProt P05556+P08648); assay: Fluorescence polarization binding of FITC-labeled disintegrins to soluble integrin α5β1; details: VCN with incorporated echistatin sequence
Sequence of α5β1 (P08648 42-894 limits assumed): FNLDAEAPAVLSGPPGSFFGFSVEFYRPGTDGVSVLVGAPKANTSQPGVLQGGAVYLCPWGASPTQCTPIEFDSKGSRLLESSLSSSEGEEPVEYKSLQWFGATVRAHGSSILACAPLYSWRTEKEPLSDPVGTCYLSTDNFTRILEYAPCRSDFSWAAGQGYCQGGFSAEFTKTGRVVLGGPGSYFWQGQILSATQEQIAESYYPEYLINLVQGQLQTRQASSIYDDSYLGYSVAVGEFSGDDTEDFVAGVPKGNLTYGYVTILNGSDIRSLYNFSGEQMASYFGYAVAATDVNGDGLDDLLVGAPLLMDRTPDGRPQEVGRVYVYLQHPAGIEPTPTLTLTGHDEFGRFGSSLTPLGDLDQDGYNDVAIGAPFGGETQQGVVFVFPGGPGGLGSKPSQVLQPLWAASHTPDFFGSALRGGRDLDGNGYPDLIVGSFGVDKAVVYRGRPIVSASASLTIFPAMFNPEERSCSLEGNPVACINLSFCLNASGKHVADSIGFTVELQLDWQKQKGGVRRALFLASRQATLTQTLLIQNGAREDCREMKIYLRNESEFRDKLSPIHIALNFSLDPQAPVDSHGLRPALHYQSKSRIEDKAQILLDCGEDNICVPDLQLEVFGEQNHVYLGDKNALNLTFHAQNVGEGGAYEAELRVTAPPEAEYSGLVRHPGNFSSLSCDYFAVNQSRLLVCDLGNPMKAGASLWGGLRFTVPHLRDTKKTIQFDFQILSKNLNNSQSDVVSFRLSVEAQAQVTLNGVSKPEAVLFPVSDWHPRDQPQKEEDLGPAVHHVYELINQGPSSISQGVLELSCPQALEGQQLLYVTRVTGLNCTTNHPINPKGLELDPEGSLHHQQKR
Sequence of α5β1 (P08648 895-995 partner limits assumed): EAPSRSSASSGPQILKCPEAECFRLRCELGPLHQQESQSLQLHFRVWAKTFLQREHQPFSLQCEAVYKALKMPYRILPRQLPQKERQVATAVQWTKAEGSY
Sequence of α5β1 (P05556 21-728 limits assumed): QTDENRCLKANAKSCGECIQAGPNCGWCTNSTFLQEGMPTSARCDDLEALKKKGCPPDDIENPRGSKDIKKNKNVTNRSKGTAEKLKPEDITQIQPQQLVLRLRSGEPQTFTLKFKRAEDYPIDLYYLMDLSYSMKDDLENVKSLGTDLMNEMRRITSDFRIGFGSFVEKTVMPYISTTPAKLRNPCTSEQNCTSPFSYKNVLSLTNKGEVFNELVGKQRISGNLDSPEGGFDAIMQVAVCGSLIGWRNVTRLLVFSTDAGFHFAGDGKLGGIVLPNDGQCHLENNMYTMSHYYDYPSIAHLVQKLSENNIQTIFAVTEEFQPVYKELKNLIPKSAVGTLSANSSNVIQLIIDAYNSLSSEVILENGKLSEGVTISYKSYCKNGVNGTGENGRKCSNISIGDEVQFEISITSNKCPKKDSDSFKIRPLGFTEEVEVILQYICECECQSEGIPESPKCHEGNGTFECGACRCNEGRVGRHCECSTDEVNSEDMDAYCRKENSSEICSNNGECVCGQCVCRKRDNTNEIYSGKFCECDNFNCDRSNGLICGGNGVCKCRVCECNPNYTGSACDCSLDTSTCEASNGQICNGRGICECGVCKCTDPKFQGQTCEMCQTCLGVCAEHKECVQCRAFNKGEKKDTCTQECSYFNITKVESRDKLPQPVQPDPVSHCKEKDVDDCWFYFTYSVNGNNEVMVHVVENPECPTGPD
From the text: FIG. 3 depicts amino acid sequences of this disclosure. Mass spectrometry and crystallographic data confirmed that CN (SEQ ID. NO. 1) is a homodimer with the 2 chains oriented in an antiparallel fashion and held together by 2 inter-chain disulfide bonds. […] Recombinant CN is SEQ ID NO. 2. VCN is SEQ ID NO. 3. Echistatin is SEQ ID NO. 4.
Further, ^131I-VCN retained essentially 100% radioiodine during dialysis against phosphate buffered saline, pH 7.4, for 15 days. […] Binding kinetics were calculated from the fluorescence anisotropy data generated by steady state binding of FITC-labeled disintegrins to either purified (αvβ3, αvβ5) or recombinant (α5β1) functional human integrins. The dissociation constants for interactions of either CN or VCN with soluble integrins were determined by Scatchard analysis using a non-linear curve fit.

[6] = tested on: platelet aggregation; assay: Inhibition of platelet aggregation (bioactivity after radioiodination); assay type: cell-based; details: radioiodinated VCN
[7] = Toxicology study, single i.v. escalating doses in rats; assay type: in vivo; details: single i.v. 3 mg/kg to 75 mg/kg, 14 days
Protocol: Rats were evaluated for signs of physical toxicity or stress and sacrificed after 14 days.

[8] = tested on: U87 GBM cells; assay: Intracranial U87 GBM tumor model, Alzet pump delivery to the brain; assay type: in vivo; details: 40 μg daily over 2 weeks via Alzet pump, U87 GBM in nude mice
From the text: Finally, in an intracranial tumor model, U87 GBM cells were stereotactically implanted into nude mice. […] After 2 weeks the mice were euthanized and their brains removed. The average tumor size of animals treated with PBS was several times larger than animals treated with VCN.

Q: Which hemorrhage [1] does the source give for contortrostatin [CN] here?
A: minimal and localized to the injection needle track

Q: And the immune response ([2]; intracranial 50 μg, tumor-bearing (U87 GBM) or tumor-free rodents, 7 days)?
A: no evidence of an immune response

Q: And the immune response ([2]; intracranial 150 μg, after 7, 14 or 21 days)?
A: no evidence of an immune response

Q: And the “radioactivity in the brain at 24 hours” value ([3]; tumor-bearing (C6) rats)?
A: the vast majority of radioactivity was still retained

Q: What about the “radioactivity in the brain at 24 hours” value ([3]; tumor-free rats) of the same substance?
A: disappeared from the brains of tumor-free rats

Q: And the survival [4]?
A: significantly (p<0.008) improved survival

Q: For vicrostatin [VCN], which “improvement of binding affinity to integrin a5b1” value [5] is on record?
A: approximately 13 fold

Q: What about the “retention of bioactivity after radioiodination, assessed by inhibition of platelet aggregation” value [6] of the same substance?
A: full retention of bioactivity; also recorded: full retention of biological activity

Q: What about the adverse effects [7] of the same substance?
A: no adverse effects observed

Q: And the “behavior, gross and microscopic examination” value [7]?
A: no changes in behavior, or in gross or microscopic examination

Q: And the body weight gain [7]?
A: gained weight indistinguishable from control

Q: And the hematological parameters [7]?
A: no significant differences in hematological parameters

Q: And the “tumor growth (tumor size versus PBS)” value [8]?
A: significant (p<0.001) attenuation of tumor growth
